Reference: US6921641

Legend:
[1] = target: T1, Escherichia coli UvrB protein
T1 chain: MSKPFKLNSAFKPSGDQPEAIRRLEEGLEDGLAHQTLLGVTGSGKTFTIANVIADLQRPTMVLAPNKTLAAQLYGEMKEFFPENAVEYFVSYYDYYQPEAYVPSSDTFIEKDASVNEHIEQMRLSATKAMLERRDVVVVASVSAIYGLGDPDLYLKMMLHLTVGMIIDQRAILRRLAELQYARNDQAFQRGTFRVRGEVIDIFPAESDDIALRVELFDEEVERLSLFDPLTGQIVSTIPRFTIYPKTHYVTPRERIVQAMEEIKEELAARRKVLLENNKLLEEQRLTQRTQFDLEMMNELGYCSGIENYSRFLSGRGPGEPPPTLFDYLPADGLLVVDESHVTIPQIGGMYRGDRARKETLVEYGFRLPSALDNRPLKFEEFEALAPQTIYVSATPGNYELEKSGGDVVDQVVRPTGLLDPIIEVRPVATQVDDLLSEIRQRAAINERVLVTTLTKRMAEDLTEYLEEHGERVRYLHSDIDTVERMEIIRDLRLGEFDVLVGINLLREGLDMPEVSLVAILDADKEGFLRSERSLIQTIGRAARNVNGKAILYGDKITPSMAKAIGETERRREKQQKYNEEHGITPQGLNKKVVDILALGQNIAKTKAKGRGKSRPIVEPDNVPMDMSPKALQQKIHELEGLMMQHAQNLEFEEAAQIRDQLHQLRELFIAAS

[2] = target: T2, Bacillus caldotenax (Bca) UvrA protein
T2 chain: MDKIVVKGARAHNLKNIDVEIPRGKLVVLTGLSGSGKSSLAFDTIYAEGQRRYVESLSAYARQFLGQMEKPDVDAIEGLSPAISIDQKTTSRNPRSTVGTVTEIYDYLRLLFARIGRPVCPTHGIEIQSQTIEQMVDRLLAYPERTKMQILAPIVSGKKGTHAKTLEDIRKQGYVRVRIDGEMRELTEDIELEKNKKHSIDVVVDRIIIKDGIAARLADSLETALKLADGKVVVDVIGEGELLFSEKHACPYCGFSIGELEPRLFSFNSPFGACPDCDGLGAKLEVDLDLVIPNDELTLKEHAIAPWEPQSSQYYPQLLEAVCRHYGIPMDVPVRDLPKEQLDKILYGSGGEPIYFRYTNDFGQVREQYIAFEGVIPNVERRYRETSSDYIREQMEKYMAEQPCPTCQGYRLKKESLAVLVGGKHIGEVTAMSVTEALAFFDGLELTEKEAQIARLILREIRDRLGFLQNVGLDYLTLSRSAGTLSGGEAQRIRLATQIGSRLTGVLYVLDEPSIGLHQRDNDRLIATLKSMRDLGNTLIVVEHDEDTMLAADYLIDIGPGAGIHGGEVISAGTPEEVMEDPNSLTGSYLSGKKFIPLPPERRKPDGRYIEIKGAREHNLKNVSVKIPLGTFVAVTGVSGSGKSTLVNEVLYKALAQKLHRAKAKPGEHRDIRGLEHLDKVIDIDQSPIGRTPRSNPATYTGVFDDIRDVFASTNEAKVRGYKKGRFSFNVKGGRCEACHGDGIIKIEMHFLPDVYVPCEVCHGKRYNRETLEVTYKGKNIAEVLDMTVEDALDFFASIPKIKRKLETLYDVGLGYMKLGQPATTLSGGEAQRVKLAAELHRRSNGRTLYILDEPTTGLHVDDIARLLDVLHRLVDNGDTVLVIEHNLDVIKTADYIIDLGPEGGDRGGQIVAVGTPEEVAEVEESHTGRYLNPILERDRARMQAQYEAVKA

B1: Bacillus caldotenax (Bca) UvrA protein (protein)
chain: T2 chain
[1]
  DNA substrate bound in the form of UvrB-DNA complex (gel mobility shift, Eco UvrB at 100 nM): more than 50% of the DNA substrate bound in the form of UvrB-DNA complex
  DNA substrate bound in the form of UvrB-DNA complex (gel mobility shift, Eco UvrB at 250 nM): all the BPDE-containing substrate is bound as the UvrB-DNA complex

B2: β-hairpin deletion mutant of the B. caldotenax UvrB protein (Δβh UvrB) (protein)
chain: VEGRFQLVAPYEPQGDQPQAIAKLVDGLRRGVKHQTLLGATGTGKTFTISNVIAQVNKPTLVIAHNKTLAGQLYSELKEFFPHNAVEYFVSYYDYYGAKINDEIDKLRHSATSALFERRDVIIVASVSCIYGLGSPEEYRELVVSLRVGMEIERNALLRRLVDIQYDRNDIDFRRGTFRVRGDVVEIFPASRDEHCIRVEFFGDEIERIREVDALTGEVLGEREHVAIFPASHFVTREEKMRLAIQNIEQELEERLAELRAQGKLLEAQRLEQRTRYDLEMMREMGFCSGIENYSRHLALRPPGSTPYTLLDYFPDDFLIIVDESHVTLPQLRGMYNGDRARKQVLVDHGFRLPSALDNRPLTFEEFEQKINQIIYVSATPGPYELEHSPGVVEQIIRPTGLLDPTIDVRPTKGQIDDLIGEIRERVERNERTLVTTLTKKMAEDLTDYLKEAGIKVAYLHSEIKTLERIEIIRDLRLGKYDVLVGINLLREGLDIPEVSLVAILDADKEGFLRSERSLIQTIGRAARNANGHVIMYADTITKSMEIAIQETKRRRAIQEEYNRKHGIVPRTVKKEIRDVIRATYAAEETEMYEAKPAAAMTKQEREELIRTLEAEMKEAAKALDFERAAQLRDIIFELKAEG
[2]
  ATPase activity (UvrA + Δβh UvrB + UV-DNA) (mol of ATP hydrolyzed/mol of protein/min): 29
  ATPase activity (UvrA + Δβh UvrB) (mol of ATP hydrolyzed/mol of protein/min): 19

B3: Bacillus caldotenax (Bca) UvrB protein, wild type (protein)
chain: VEGRFQLVAPYEPQGDQPQAIAKLVDGLRRGVKHQTLLGATGTGKTFTISNVIAQVNKPTLVIAHNKTLAGQLYSELKEFFPHNAVEYFVSYYDYYQPEAYVPQTDTYIEKDAKINDEIDKLRHSATSALFERRDVIIVASVSCIYGLGSPEEYRELVVSLRVGMEIERNALLRRLVDIQYDRNDIDFRRGTFRVRGDVVEIFPASRDEHCIRVEFFGDEIERIREVDALTGEVLGEREHVAIFPASHFVTREEKMRLAIQNIEQELEERLAELRAQGKLLEAQRLEQRTRYDLEMMREMGFCSGIENYSRHLALRPPGSTPYTLLDYFPDDFLIIVDESHVTLPQLRGMYNGDRARKQVLVDHGFRLPSALDNRPLTFEEFEQKINQIIYVSATPGPYELEHSPGVVEQIIRPTGLLDPTIDVRPTKGQIDDLIGEIRERVERNERTLVTTLTKKMAEDLTDYLKEAGIKVAYLHSEIKTLERIEIIRDLRLGKYDVLVGINLLREGLDIPEVSLVAILDADKEGFLRSERSLIQTIGRAARNANGHVIMYADTITKSMEIAIQETKRRRAIQEEYNRKHGIVPRTVKKEIRDVIRATYAAEETEMYEAKPAAAMTKQEREELIRTLEAEMKEAAKALDFERAAQLRDIIFELKAEG
[2]
  ATPase activity (UvrA + UvrB + UV-DNA) (mol of ATP hydrolyzed/mol of protein/min): 22
  ATPase activity (UvrA + UvrB) (mol of ATP hydrolyzed/mol of protein/min): 18.3
